The record followed here is paper PMC12751338, “Biochemical and functional characterization of orf virus decapping protein OV71” (Virology Journal, 2025).

Data set [1] has as its system his-OV71 (Orf virus (Taiping strain)). The experiment in a line: competition. To be noted: EMSA: 20 mM HEPES, 10 mM EDTA, 1 M KCl, 1 mM DTT, 80 ug/mL BSA, 50% glycerol (so in the source), on ice 15 min, 0.05 pmol RNA. Pulldown: 100 mM K acetate. A general note: Mobility shift assays separate free from complexed probe on a gel.
Data set [2] deals with T1, OV71 (ORFV071; his-OV71) (Orf virus strain SA00, UniProt Q6TVP9).
T1 construct: His-tagged, pET24a (NdeI/XhoI), E. coli BL21(DE3), Talon cobalt resin; approx. 25 kDa
The experiment in a line: competition in decapping of radiolabeled capped RNA, TLC. It counts as biochemical. Particulars: 206-nt cap-labeled RNA substrate; 4 pmol enzyme; 2 mM MgCl2, 0.5 mM MnCl2, pH 7.5, 37 °C; added product as competitor.

The compound 206 nt uncapped RNA competitor displayed an IC50 in data set [1] of 40 pmol.

Take `C[n+]1cn([C@@H]2O[C@H](COP(=O)(O)OP(=O)(O)O)[C@@H](O)[C@H]2O)c2nc(N)[nH]c(=O)c21` [m^7GDP]: the relative decapping ratio result in data set [2] is “decapping product m^7GDP modestly inhibited the decapping (Fig. 3D and E), indicating weak affinity”.
